± gives the uncertainty stated by the source.
B1: RanBP-type and C3HC4-type zinc finger-containing protein 1, residues 369 to 411; numbered along this chain, Q9BYM8 (parent)
chain: YHCKTPDCKGWCFFEDDVNEFTCPVCFHVNCLLCKAIHEQMNC

Variants of: B1
Experiment: abundance fitness (aPCA) (normalised: wild type 0, dead -1); higher = more abundant; growth selection in yeast, the domain comes from the species named
Conditions: Homo sapiens

Variant	abundance fitness
YHWKTPDCKGWCFFEDDVNEFTCPVCFHVNCLLCKAIHEQMNC	-0.879 ± 0.06
YHVKTPDCKGWCFFEDDVNEFTCPVCFHVNCLLCKAIHEQMNC	-1.32 ± 0.11
YHLKTPDCKGWCFFEDDVNEFTCPVCFHVNCLLCKAIHEQMNC	-0.884 ± 0.11
YHMKTPDCKGWCFFEDDVNEFTCPVCFHVNCLLCKAIHEQMNC	-0.978 ± 0.12
YHGKTPDCKGWCFFEDDVNEFTCPVCFHVNCLLCKAIHEQMNC	-0.826 ± 0.044
YHTKTPDCKGWCFFEDDVNEFTCPVCFHVNCLLCKAIHEQMNC	-0.937 ± 0.098
YHRKTPDCKGWCFFEDDVNEFTCPVCFHVNCLLCKAIHEQMNC	-0.906 ± 0.051
YHSKTPDCKGWCFFEDDVNEFTCPVCFHVNCLLCKAIHEQMNC	-0.831 ± 0.082
YHQKTPDCKGWCFFEDDVNEFTCPVCFHVNCLLCKAIHEQMNC	-0.886 ± 0.12
YHIKTPDCKGWCFFEDDVNEFTCPVCFHVNCLLCKAIHEQMNC	-0.593 ± 0.14
YHDKTPDCKGWCFFEDDVNEFTCPVCFHVNCLLCKAIHEQMNC	-0.969 ± 0.1
YHKKTPDCKGWCFFEDDVNEFTCPVCFHVNCLLCKAIHEQMNC	-0.771 ± 0.071
YHPKTPDCKGWCFFEDDVNEFTCPVCFHVNCLLCKAIHEQMNC	-1.13 ± 0.12
YHNKTPDCKGWCFFEDDVNEFTCPVCFHVNCLLCKAIHEQMNC	-0.666 ± 0.14
YHFKTPDCKGWCFFEDDVNEFTCPVCFHVNCLLCKAIHEQMNC	-1.12 ± 0.23
YHEKTPDCKGWCFFEDDVNEFTCPVCFHVNCLLCKAIHEQMNC	-0.984 ± 0.16
YYCKTPDCKGWCFFEDDVNEFTCPVCFHVNCLLCKAIHEQMNC	0.105 ± 0.07
YNCKTPDCKGWCFFEDDVNEFTCPVCFHVNCLLCKAIHEQMNC	0.104 ± 0.1
YMCKTPDCKGWCFFEDDVNEFTCPVCFHVNCLLCKAIHEQMNC	-0.031 ± 0.059
YKCKTPDCKGWCFFEDDVNEFTCPVCFHVNCLLCKAIHEQMNC	0.095 ± 0.062

Variant	abundance fitness
YECKTPDCKGWCFFEDDVNEFTCPVCFHVNCLLCKAIHEQMNC	-0.554 ± 0.07
YVCKTPDCKGWCFFEDDVNEFTCPVCFHVNCLLCKAIHEQMNC	-0.739 ± 0.071
YLCKTPDCKGWCFFEDDVNEFTCPVCFHVNCLLCKAIHEQMNC	-0.233 ± 0.056
YTCKTPDCKGWCFFEDDVNEFTCPVCFHVNCLLCKAIHEQMNC	-0.149 ± 0.059
YSCKTPDCKGWCFFEDDVNEFTCPVCFHVNCLLCKAIHEQMNC	-0.072 ± 0.05
YFCKTPDCKGWCFFEDDVNEFTCPVCFHVNCLLCKAIHEQMNC	0.029 ± 0.074
YCCKTPDCKGWCFFEDDVNEFTCPVCFHVNCLLCKAIHEQMNC	-0.103 ± 0.069
YICKTPDCKGWCFFEDDVNEFTCPVCFHVNCLLCKAIHEQMNC	-0.265 ± 0.14
YRCKTPDCKGWCFFEDDVNEFTCPVCFHVNCLLCKAIHEQMNC	0.035 ± 0.041
YACKTPDCKGWCFFEDDVNEFTCPVCFHVNCLLCKAIHEQMNC	-0.285 ± 0.044
YGCKTPDCKGWCFFEDDVNEFTCPVCFHVNCLLCKAIHEQMNC	-0.568 ± 0.051
YDCKTPDCKGWCFFEDDVNEFTCPVCFHVNCLLCKAIHEQMNC	-0.275 ± 0.11
YQCKTPDCKGWCFFEDDVNEFTCPVCFHVNCLLCKAIHEQMNC	0.091 ± 0.053
YHCKTCDCKGWCFFEDDVNEFTCPVCFHVNCLLCKAIHEQMNC	-0.709 ± 0.1
YHCKTIDCKGWCFFEDDVNEFTCPVCFHVNCLLCKAIHEQMNC	-0.411 ± 0.11
YHCKTSDCKGWCFFEDDVNEFTCPVCFHVNCLLCKAIHEQMNC	-0.266 ± 0.069
YHCKTDDCKGWCFFEDDVNEFTCPVCFHVNCLLCKAIHEQMNC	-0.343 ± 0.075
YHCKTEDCKGWCFFEDDVNEFTCPVCFHVNCLLCKAIHEQMNC	-0.185 ± 0.049
YHCKTQDCKGWCFFEDDVNEFTCPVCFHVNCLLCKAIHEQMNC	-0.063 ± 0.046
YHCKTMDCKGWCFFEDDVNEFTCPVCFHVNCLLCKAIHEQMNC	-0.23 ± 0.06

Variant	abundance fitness
YHCKTLDCKGWCFFEDDVNEFTCPVCFHVNCLLCKAIHEQMNC	-0.365 ± 0.08
YHCKTWDCKGWCFFEDDVNEFTCPVCFHVNCLLCKAIHEQMNC	-0.629 ± 0.11
YHCKTHDCKGWCFFEDDVNEFTCPVCFHVNCLLCKAIHEQMNC	-0.434 ± 0.12
YHCKTFDCKGWCFFEDDVNEFTCPVCFHVNCLLCKAIHEQMNC	-0.493 ± 0.22
YHCKTADCKGWCFFEDDVNEFTCPVCFHVNCLLCKAIHEQMNC	-0.115 ± 0.044
YHCKTGDCKGWCFFEDDVNEFTCPVCFHVNCLLCKAIHEQMNC	-0.494 ± 0.044
YHCHTPDCKGWCFFEDDVNEFTCPVCFHVNCLLCKAIHEQMNC	-0.174 ± 0.067
YHCITPDCKGWCFFEDDVNEFTCPVCFHVNCLLCKAIHEQMNC	-0.206 ± 0.14
YHCVTPDCKGWCFFEDDVNEFTCPVCFHVNCLLCKAIHEQMNC	0.051 ± 0.045
YHCWTPDCKGWCFFEDDVNEFTCPVCFHVNCLLCKAIHEQMNC	-0.083 ± 0.065
YHCPTPDCKGWCFFEDDVNEFTCPVCFHVNCLLCKAIHEQMNC	-0.527 ± 0.072
YHCYTPDCKGWCFFEDDVNEFTCPVCFHVNCLLCKAIHEQMNC	-0.084 ± 0.096
YHCCTPDCKGWCFFEDDVNEFTCPVCFHVNCLLCKAIHEQMNC	-0.201 ± 0.051
YHCETPDCKGWCFFEDDVNEFTCPVCFHVNCLLCKAIHEQMNC	-0.359 ± 0.064
YHCATPDCKGWCFFEDDVNEFTCPVCFHVNCLLCKAIHEQMNC	0.012 ± 0.041
YHCDTPDCKGWCFFEDDVNEFTCPVCFHVNCLLCKAIHEQMNC	-0.504 ± 0.11
YHCLTPDCKGWCFFEDDVNEFTCPVCFHVNCLLCKAIHEQMNC	0.124 ± 0.044
YHCRTPDCKGWCFFEDDVNEFTCPVCFHVNCLLCKAIHEQMNC	0.021 ± 0.041
YHCMTPDCKGWCFFEDDVNEFTCPVCFHVNCLLCKAIHEQMNC	0.201 ± 0.062
